According to patent publication US12214021B2 (CHINA AGRICULTURAL UNIVERSITY, priority 2018, dated 2025):
Marks after values point to notes of the source that are not given here.

Experiments:
[1] = bone mineral density of the femur of mice; assay type: in vivo
Description: The factors affecting bone mineral density mainly include bone mass factors and bone quality factors. Decreased bone mass is an important factor in the occurrence of common bone diseases, and bone mineral density (BMD) is an important indicator for quantifying bone mass in bone mineral metabolism. The BMD index is of great significance for the prediction of fracture risk, the early diagnosis of osteoporosis and the evaluation of intervention measures.

[2] = blood biochemical markers in mice after oral LF; assay type: in vivo; conditions: for 25-OH VD3 / Ca / P / PTH: blood, Mean ± SD, n = 8
Description: Generally, the content of VD is reflected by measuring the content of 25-OH D3 in the serum. […] The contents of calcium and phosphorus in serum reflect the degree of absorption of calcium and phosphorus in the small intestine. […] However, oral administration of LF still has no effect on serum calcium and phosphorus content.

VDR [3] = assay: VDR protein expression in cytoplasm and nucleus of osteoblasts after LF for different times; assay type: cell-based
Experimental: After verifying that LF promotes high expression of VDR at the transcription level, it is further verified at the protein level. VDR exists in the cytoplasm and nucleus, but plays a major role in the nucleus. The inventors stimulated osteoblasts for different times using LF to measure the expression of VDR in the cytoplasm and nucleus. […] In the nucleus, VDR expression began to increase at 1 hour after LF treatment, and reaches the maximum at 2-6 h.

VDR [4] = assay: effect of inhibition of endocytosis (hypertonic, 4° C.) on VDR expression promoted by LF in MC3T3-E1 cells; assay type: cell-based; conditions: under the condition of inhibiting endocytosis (hypertonic, 4° C.), FIG. 18
Experimental: Studies have shown that LF can directly enter the cell and bind with DNA to regulate cell gene expression. Therefore, in order to study the effect of endocytosis, cells were stimulated with LF under culture conditions that inhibit endocytosis, and the inhibitory effect on the endocytosis of LF were detected firstly. […] Then, the promotion effect of LF on VDR was measured to analyze whether the inhibition of endocytosis affected the expression of VDR promoted by LF to determine the site of action of LF.

[5] = micro-CT microstructure of trabecular bone of distal femur of mice; assay type: in vivo; conditions: for BV/TV / TPF / Tb · N / Tb · Sp / Tb · Th: femoral ROI, Mean ± SD, n = 8
Description: According to the micro-building theory, the strength of the trabecular bone depends not only on the BMD, but also on its three-dimensional structure. In pathology, bone damage should include both “quantitative” change and “qualitative” changes. Quantitative change is the decline of BMD, while qualitative change is the change of the microstructure of trabecular bone, such as trabecular number and thickness, trabecular connection, and so on. Trabecular bone plays a major role in the microstructure. Increasing the cross structure of each trabecular bone can increase the supporting strength of the bone, but has basically no effect on bone mineral density.
The distal femur is considered a sensitive site for detecting bone health due to high cancellous bone content and rapid bone turnover. Therefore, the inventors analyzed the microstructure of trabecular bone of the distal femur using micro-CT. […] Therefore, this study mainly analyzed the microstructure of the cancellous trabecular bone of the femur in each group. The three-dimensional structure image of the trabecular bone of the ROI region of the mouse femur obtained by micro-CT reconstruction is shown in FIG. 7A and the longitudinal section is shown in FIG. 7B.
In order to quantitatively analyze the structure of the trabecular bone, the spatial structure parameters of the trabecular bone of the ROI region shown in FIG. 7 were also measured. Trabecular bone structure parameters include the followings: Bone Volume Fraction (BV/TV), which is the ratio of the total volume of voxels representing the bone structure in the ROI to the total volume of all voxels in the region, and when the bone is unhealthy, the trabecular bone is lost and the BV/TV value decreases; trabecular thickness (Tb·Th), which is the average thickness of trabecular bone, and when the bone is unhealthy, the value of Tb·Th decreases, and in porous materials, Tb·Th can be understood as thickness of the pore wall; trabecular number (Tb·N), which is the number of intersections of bone tissue and non-bone tissue within a given length, and when the bone is unhealthy, the value of Tb·N decreases; trabecular separation (Tb·Sp), which is the average width of the medullary cavity between the trabecular bones. An increase in Tb·Sp indicates an increased bone resorption and possible bone loss. Tb. Sp can be understood as porosity. The trabecular pattern factor is used to evaluate the morphology of the trabecular bone. This parameter is determined by the surface area and volume of the trabecular bone, and is a parameter obtained through 3D simulation. The smaller the TPF value, the better the connectivity between trabecular bones. BV/TV, Tb·Th, Tb·N, and Tb·Sp are parameters that can be provided by both micro-CT and bone tissue morphometry. The TPF value is a parameter based on the analysis of the three-dimensional structure of the trabecular bone, can be obtained from micro-CT analysis, but cannot be provided by the traditional two-dimensional method.

[6] = contents of calcium and phosphorus in urine of mice; assay type: in vivo; conditions: LF1000 group
Experimental: In order to reflect the reabsorption of calcium and phosphorus by the kidney, the contents of calcium and phosphorus in urine were measured. In the VD-deficient groups, the calcium content in the LF1000 group is reduced by 67% compared with the control group, and the phosphorus content in the LF1000 group is reduced by 72% compared with the control group; in the VD-normal groups, the calcium content in the LF1000 group is reduced by 80% compared with the control group, and the phosphorus content in the LF1000 group is reduced by 78% compared with the control group.

VDR [7] = assay: Western blot detection of VDR expression in kidney, colon and bone tissue; assay type: in vivo, mice
Description: The inventors further verified the expression of VDR in three major tissues, kidney, colon and bone using the Western blot method by extracting the tissue protein.

VDR [8] = assay: immunohistochemistry of VDR expression in mouse kidney, colon and bone tissue; assay type: in vivo, mice; conditions: for VDR-positive cell rate in the kidney: FIG. 9; for VDR positive cell rate in the colon (positive cells to total cells in each crypt): FIG. 11
Description: The immunohistochemical technique was used to detect the expression of VDR in kidney tissues.

VDR [9] = assay: expression of VDR gene (mRNA) in MC3T3-E1 cells under LF stimulation; assay type: cell-based; conditions: FIG. 1
osteoblasts = assay: proliferation of osteoblasts promoted by LF (MTT method); assay type: cell-based; conditions: FIG. 4
Experimental: Based on transcriptome data, the inventors verified that LF can promote the high expression of VDR at both the gene and protein levels. In order to confirm the role of this pathway in the promotion of osteoblast proliferation and differentiation by LF, the inventors first designed a VDR siRNA to achieve the purpose of transiently silencing VDR genes. The principle of siRNA is the post-transcriptional gene silencing mechanism that blocks the expression of corresponding gene. 20 μM VDR siRNA was added to osteoblasts, the proliferation rate of osteoblasts promoted by LF was detected by MTT method, and the ALP activity of osteoblasts promoted by LF was detected by enzyme-linked immunoassay.
The inventors first confirmed that LF promotes the proliferation and differentiation of osteoblasts through the regulation of the VDR pathway using the osteoblast model. Since the osteogenic effect of VDR is mainly achieved by vitamin D, in order to simulate the normal physiological environment, the inventors treated osteoblasts with both 1 nM of […] (the active form of vitamin D) and LF, and then studied the proliferation and differentiation of osteoblasts.

[10] = VD-deficient LF100-administered group as printed (second such column, c3)
[11] = VD-normal LF100-administered group as printed (second such column, c6)
[12] = osteoblasts, after LF treatment
[13] = VD-normal oral-administered LF group

B1: lactoferrin (protein, UniProt P02788 20-710, looked up)
Lactotransferrin: GRRRSVQWCAVSQPEATKCFQWQRNMRKVRGPPVSCIKRDSPIQCIQAIAENRADAVTLDGGFIYEAGLAPYKLRPVAAEVYGTERQPRTHYYAVAVVKKGGSFQLNELQGLKSCHTGLRRTAGWNVPIGTLRPFLNWTGPPEPIEAAVARFFSASCVPGADKGQFPNLCRLCAGTGENKCAFSSQEPYFSYSGAFKCLRDGAGDVAFIRESTVFEDLSDEAERDEYELLCPDNTRKPVDKFKDCHLARVPSHAVVARSVNGKEDAIWNLLRQAQEKFGKDKSPKFQLFGSPSGQKDLLFKDSAIGFSRVPPRIDSGLYLGSGYFTAIQNLRKSEEEVAARRARVVWCAVGEQELRKCNQWSGLSEGSVTCSSASTTEDCIALVLKGEADAMSLDGGYVYTAGKCGLVPVLAENYKSQQSSDPDPNCVDRPVEGYLAVAVVRRSDTSLTWNSVKGKKSCHTAVDRTAGWNIPMGLLFNQTGSCKFDEYFSQSCAPGSDPRSNLCALCIGDEQGENKCVPNSNERYYGYTGAFRCLAENAGDVAFVKDVTVLQNTDGNNNEAWAKDLKLADFALLCLDGKRKPVTEARSCHLAMAPNHAVVSRMDKVERLKQVLLHQQAKFGRNGSDCPDKFCLFQSETKNLLFNDNTECLARLHGKTTYEKYLGPQYVAGITNLKKCSTSPLLEACEFLRK
notes: natural glycoprotein with a molecular weight of 78 KDa in milk
bone mineral density of the femur, increase compared with the VD-deficient control group ([1]; VD-deficient LF100-administered group, 5 months oral, p<0.05): 5.67% | effect on bone mineral density when VD is normal ([1]; oral administration, VD normal): further promote bone mineral density | 25-OH VD3 [2, 10]: 14.8 ± 2.39^a ng/mL | Ca [2, 10]: 1.6 ± 0.13^a mmol/L | P [2, 10]: 2.33 ± 0.42^a mmol/L | PTH [2, 10]: 93.69 ± 34.61^b pg/mL | 25-OH VD3 [2, 11]: 27.61 ± 2.93^b ng/mL | Ca [2, 11]: 2.25 ± 0.17^b mmol/L | P [2, 11]: 2.26 ± 0.33^a mmol/L | PTH [2, 11]: 91.91 ± 13.10^b pg/mL | effect on PTH content ([2]; oral 1000 mg/kg BW LF in the VD-deficient group): reduce the PTH content | effect on serum calcium and phosphorus content ([2]; oral administration of LF): no effect | effect on the 25-OH D3 content in serum ([2]; oral administration of LF vs corresponding control groups): no significant effect | time after which VDR expression in the cytoplasm began to normalize (VDR [3]; osteoblasts treated with LF): 12 h | time at which VDR expression in the cytoplasm reaches the maximum (VDR [3]; osteoblasts treated with LF): 4 h | VDR expression in the cytoplasm (VDR [3]; osteoblasts treated with LF for two hours): significantly increased | time at which VDR expression in the nucleus began to increase (VDR [3]; [12]): 1 h | time at which VDR expression in the nucleus reaches the maximum (VDR [3]; [12]): 2 to 6 h | promotion effect of LF on the expression of VDR in the cytoplasm and nucleus (VDR [4]): significantly inhibited | trabecular bones and cavity in longitudinal section compared with the control group ([5]; VD-deficient LF-administered group, FIG. 7): obviously more trabecular bones and smaller cavity | BV/TV of the trabecular bone compared with the VD-deficient control group and the VD-normal control group ([5]; VD-deficient groups, low-dose LF group): significantly higher | trabecular structure parameters compared with the control group [5, 13]: comparable to the control group, except for Tb·Th value | BV/TV [5, 10]: 0.252 ± 0.029^b % | TPF [5, 10]: 7.290 ± 2.128^ab mm^−1 | Tb · N [5, 10]: 5.374 ± 0.501^ab mm^−1 | Tb · Sp [5, 10]: 0.136 ± 0.017^b mm | Tb · Th [5, 10]: 0.054 ± 0.005^ab mm | BV/TV [5, 11]: 0.28 ± 0.017^ab % | TPF [5, 11]: 5.599 ± 0.397^b mm^−1 | Tb · N [5, 11]: 6.029 ± 0.586^a mm^−1 | Tb · Sp [5, 11]: 0.141 ± 0.020^b mm | Tb · Th [5, 11]: 0.057 ± 0.004^ab mm | calcium content in urine, reduction compared with the control group ([6]; VD-deficient groups): 67% | phosphorus content in urine, reduction compared with the control group ([6]; VD-deficient groups): 72% | calcium content in urine, reduction compared with the control group ([6]; VD-normal groups): 80% | phosphorus content in urine, reduction compared with the control group ([6]; VD-normal groups): 78% | VDR expression in the colon (VDR [7]; FIG. 15): effectively promote the expression of VDR | VDR expression in the femur, higher than that of the control group (VDR [7]; VD deficiency, LF1000-administered group, FIG. 16): 3 times | VDR expression in the kidney (VDR [7]; VD deficiency, oral lactoferrin, FIG. 14): effectively promote the expression of VDR | VDR expression in the femur, higher than that of the VD normal control group (VDR [7]; VD-normal oral-administered 100 mg LF/kg BW group, FIG. 16): 2.35 times | VDR-positive cell rate in the kidney (VDR [8]; VD-deficient LF100-administered group): 13.8% | VDR positive cell rate in the femur (VDR [8]; VD-deficient LF100-administered group, FIG. 13): 75% | VDR-positive cell rate in the kidney (VDR [8]; VD-deficient LF1000-administered group): 17% | VDR positive cell rate in the colon (positive cells to total cells in each crypt) (VDR [8]; VD-deficient LF-administered group): more than 70% | VDR-positive cell rate in the kidney (VDR [8]; VD-normal LF100-administered group): 16.3% | VDR-positive cell rate in the kidney (VDR [8]; VD-normal LF1000-administered group): 16.5% | VDR positive cell rate in the colon (positive cells to total cells in each crypt) (VDR [8]; [13]): ~80% | VDR expression at mRNA levels (VDR [9]): up to 30 fold | effect on promoting the proliferation and differentiation of osteoblasts, compared with 1.25(OH)2D3 (osteoblasts): stronger effect
